B1: MMP-9/IVS4 chimera (MMP-9 with the outermost β-strand of blade IV of the PEX domain, NQVDQVGY, replaced by MMP-2 KSVKFGS) (enzyme)
chain: APRQRQSTLVLFPGDLRTNLTDRQLAEEYLYRYGYTRVAEMRGESKSLGPALLLLQKQLSLPETGELDSATLKAMRTPRCGVPDLGRFQTFEGDLKWHHHNITYWIQNYSEDLPRAVIDDAFARAFALWSAVTPLTFTRVYSRDADIVIQFGVAEHGDGYPFDGKDGLLAHAFPPGPGIQGDAHFDDDELWSLGKGVVVPTRFGNADGAACHFPFIFEGRSYSACTTDGRSDGLPWCSTTANYDTDDRFGFCPSERLYTQDGNADGKPCQFPFIFQGQSYSACTTDGRSDGYRWCATTANYDRDKLFGFCPTRADSTVMGGNSAGELCVFPFTFLGKEYSTCTSEGRGDGRLWCATTSNFDSDKKWGFCPDQGYSLFLVAAHEFGHALGLDHSSVPEALMYPMYRFTEGPPLHKDDVNGIRHLYGPRPEPEPRPPTTTTPQPTAPPTVCPTGPPTVHPSERPTAGPTGPPSAGPTGPPTAGPSTATTVPLSPVDDACNVNIFDAIAEIGNQLYLFKDGKYWRFSEGRGSRPQGPFLIADKWPALPRKLDSVFEERLSKKLFFFSGRQVWVYTGASVLGPRRLDKLGLGADVAQVTGALRSGRGKMLLFSGRRLWRFDVKAQMVDPRSASEVDRMFPGVPLDTHDVFQYREKAYFCQDRFYWRVSSRSELKSVKFGSVTYDILQCPED
notes: also called MMP-9/Blade IV; MMP-9/blade IV mutant

Legend:
[1] = target: Matrix Metalloproteinase-9 (MMP-9), wild type (Homo sapiens (Human), UniProt P14780 20-707); experiment: cell-based or functional assay
[2] = target: T1, MMP-9 with a carboxy-terminal Myc tag (MMP-9/Myc) (Homo sapiens (Human), UniProt P14780 20-707); experiment: co-immunoprecipitation, co-transfected COS-1 cells
T1 construct: Expressed from cDNA in COS-1 cells and secreted as proMMP-9; also called Myc-tagged MMP-9; proMMP-9/Myc; not shown: C-terminal Myc tag from the pcDNA3.1-myc vector
Description: FIG. 4. Blade IV of the PEX domain of proMMP-9 is required for homodimerization and cell migration. (A) Ribbon diagram of MMP-9 PEX domain (PDB:1ITV). Each outermost β-strand from the four blades was swapped with the corresponding MMP-2 PEX domain sequences (upper panel). Lower panel: Schematic diagram of substitution mutations at the outermost 3-strands of four blade of MMP-9 by corresponding MMP-2 sequences. […] The conditioned medium was also examined by gelatin zymography (lower panel). […] (P-values reflect comparison with MMP-9 transfected cells: *P<0.05). (D) A peptide mimicking MMP-9 IVS4 abrogates MMP-9 dimerization examined by co-immunoprecipitation (upper panel). Total cell lysate (20 μg) was also examined by an immunoblotting assay using anti-HA antibody (lower panel). (E) Dose dependent inhibition of MMP-9-mediated cell migration by IVS4 peptides. No effect was found using scrambled peptides. COS-1 cells transfected with an empty vector or MMP-9 cDNAs were examined by a transwell chamber migration assay for 6 hours in the presence of DMSO control, specific and scramble peptides at different concentration. Each data point was performed in triplicate and the experiments was repeated three times (*P<0.05).
Each blade contains four anti-parallel […]-strands with peptide loops linking one strand to the next as illustrated in FIG. 1B. […]

Binder	IC50 (potency; inhibition of MMP-9-induced cell migration, transwell assay) [1]	binding result [2]
SRPQGPFL [IS4 peptide (SRPQGPFL)]	12 µM	–
B1	–	no binding
NQVDQVGY [IVS4 peptide (NQVDQVGY)]	50 µM	–
